The values that follow come from paper PMC6056499 (2018).

The target of experiment [1] is T1, human β-Klotho extracellular domain (aa1–992) fused with a 6 × His tag at the C-terminus (human, UniProt Q86Z14 1-992, biotin (EZ-Link Sulfo-NHS-LC-Biotin) in the bio-layer interferometry). Description: competition with FGF21 (AlphaScreen). For orientation: In Alpha technology, singlet oxygen from a donor bead excites a nearby acceptor bead.
Experiment [2] has as its target T1, human β-Klotho extracellular domain …. Kind of experiment: competition with FGF19 (AlphaScreen).
Experiment [3] shares this target. Description: AlphaScreen, competition with FGF19.
Experiment [4] has the same target. Kind of experiment: AlphaScreen, competition with FGF21.
Experiment [5] shares this target. Kind of experiment: BLI. (In general: Biolayer interferometry detects binding as a change in optical thickness at a sensor tip.)
For experiment [6] the target is unchanged. Description: ELISA; solid-phase binding assay. (In general: ELISA stands for enzyme-linked immunosorbent assay.)
Experiment [7] shares this target. Kind of experiment: AlphaScreen, biotinylated FGF.

T1 sequence (Q86Z14 53-992): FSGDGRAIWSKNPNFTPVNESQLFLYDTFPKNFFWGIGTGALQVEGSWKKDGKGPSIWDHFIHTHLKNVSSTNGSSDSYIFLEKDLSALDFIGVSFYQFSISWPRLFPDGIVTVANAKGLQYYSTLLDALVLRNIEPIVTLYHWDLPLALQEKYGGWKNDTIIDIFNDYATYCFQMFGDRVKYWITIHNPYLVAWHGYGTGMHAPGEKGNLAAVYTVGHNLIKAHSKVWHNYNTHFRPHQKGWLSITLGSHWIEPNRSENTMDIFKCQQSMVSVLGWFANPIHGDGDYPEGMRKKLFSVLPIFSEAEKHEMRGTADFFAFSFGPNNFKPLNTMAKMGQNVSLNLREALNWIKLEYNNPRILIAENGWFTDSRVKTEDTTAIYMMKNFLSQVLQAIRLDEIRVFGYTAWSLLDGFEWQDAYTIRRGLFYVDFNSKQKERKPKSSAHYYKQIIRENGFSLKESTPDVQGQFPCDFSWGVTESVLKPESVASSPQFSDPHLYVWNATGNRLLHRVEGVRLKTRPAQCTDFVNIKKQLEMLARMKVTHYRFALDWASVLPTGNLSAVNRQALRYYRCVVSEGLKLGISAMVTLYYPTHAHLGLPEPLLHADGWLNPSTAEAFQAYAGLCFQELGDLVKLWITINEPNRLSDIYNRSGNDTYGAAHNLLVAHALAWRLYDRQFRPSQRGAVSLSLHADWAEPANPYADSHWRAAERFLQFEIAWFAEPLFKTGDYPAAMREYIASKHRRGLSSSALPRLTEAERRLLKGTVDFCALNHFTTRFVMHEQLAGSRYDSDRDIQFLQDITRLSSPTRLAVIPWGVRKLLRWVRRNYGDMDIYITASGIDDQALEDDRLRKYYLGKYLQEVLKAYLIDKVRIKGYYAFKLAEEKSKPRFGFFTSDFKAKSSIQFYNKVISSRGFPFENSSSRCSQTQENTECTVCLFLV

B1: FGF21 183-209 183P-A (peptide)
chain: AQPPDVGSSDPLSMVGPSQGRSPSYAS
Turning to B1, the results for the IC50 in experiment [1] and in experiment [2] were 4.5 nM and 1 nM, respectively.

B2: FGF21 183-209 193P-A (peptide)
chain: PQPPDVGSSDALSMVGPSQGRSPSYAS
As to B2, in experiment [2], the half-inhibitory concentration (IC50) (in general, the midpoint of a concentration-inhibition curve) is 5.5 nM.

B3: FGF19 C-terminal peptide, WT FGF19^185–216 (peptide)
peptide: SDMFSSPLETDSMDPFGLVTGLEAVRSPSFEK
B3: the concentration for half-maximal inhibition (IC50) stood at 46.7 nM in experiment [3] and 346 nM in experiment [4].

B4: FGF21 183-209 (peptide)
chain: PQPPDVGSSDPLSMVGPSQGRSPSYAS
In the case of B4, the results for the IC50 in experiment [1] and in experiment [2] were 2.1 nM and 0.52 nM, respectively.

B5: FGF21 183-209 198G-A (peptide)
chain: PQPPDVGSSDPLSMVAPSQGRSPSYAS
As to B5, the IC50 in experiment [1] is 6 nM; in experiment [2] it was 2.6 nM.

B6: FGF21 183-209 203R-A (peptide)
chain: PQPPDVGSSDPLSMVGPSQGASPSYAS
B6 gave a concentration for half-maximal inhibition (IC50) in experiment [2] of 0.28 nM.

B7: mature human FGF21 polypeptide fused with the human Fc fragment at the N-terminus (Fc-FGF21), wild type (Fc fusion)
chain: HPIPDSSPLLQFGGQVRQRYLYTDDAQQTEAHLEIREDGTVGGAADQSPESLLQLKALKPGVIQILGVKTSRFLCQRPDGALYGSLHFDPEACSFRELLLEDGYNVYQSEAHGLPLHLPGNKSPHRDPAPRGPARFLPLPGLPPALPEPPGILAPQPPDVGSSDPLSMVGPSQGRSPSYAS
Take B7: the dissociation constant Kd (as a rule, the constant that tells how readily two partners part at equilibrium) in experiment [5] came out at 1.36 nM. For the same molecule, the EC50 (in general, the midpoint of the concentration-response curve) in experiment [6] was 0.6 nM.

B8: mature human FGF21 (ligand)
chain: B7 chain
modifications: biotin (EZ-Link Sulfo-NHS-LC-Biotin) in the solid-phase binding assay; biotinylated as the labelled ligand in AlphaScreen
Regarding B8, in experiment [5], the affinity, expressed as Kd, was 5.17 nM. Besides, the results for the IC50 in experiment [3] and in experiment [4] were 5.7 nM and 23.1 nM, respectively. The molecule also had a half-maximal effective concentration (EC50) in experiment [7] of 2.81 nM.

B9: FGF21 183-209 188V-A (peptide)
chain: PQPPDAGSSDPLSMVGPSQGRSPSYAS
In experiment [2], B9 displayed an IC50 of 5.2 nM.
